Data taken from patent publication US20240352132A1 (JIANGSU HENGRUI PHARMACEUTICALS, published 2024).

Columns and labels:
[1] = molecular target: T1, HGFR protein extracellular domain with the His tag (human, UniProt P08581 25-932); experiment: SPR Biacore T200, antibody captured on Protein A, antigen in flow, 1:1 fit
T1 construct: also called HGFR-His; human HGFR
Procedure: (§1) The affinity of the test molecule for human EGFR (SEQ ID NO: 42) or human HGFR protein (SEQ ID NO: 43) was determined by Biacore T200 (GE) as follows:
(§2) The antibody molecules were affinity-captured on a Protein A biosensor chip of which antigens flowed through the surface for 180 s, and then the antibody molecules were dissociated for 600 s. The reaction signals were detected in real time using a Biacore T200 instrument to obtain association and dissociation curves. After dissociation was completed for each cycle, the biosensor chip was washed with 10 mM Gly-HCl (pH 1.5) for regeneration. Data were fitted using a 1:1 model, and affinity values of the test molecules were obtained. In this example, the positive control MCLA was a bispecific antibody specifically binding to HGFR and EGFR (see PB8532 in WO2019031965 for specific sequences).

[2] = molecular target: T1, HGFR protein extracellular domain with …; experiment: flow cytometry on HGFR CHO-S stably transfected cells, R-PE goat anti-human (H+L) detection
From the text: (§3) The binding activity of antigen-binding molecules specifically binding to HGFR and EGFR to cells was detected using a flow cytometer. EGFR CHO-S stably transfected cell strain, HGFR CHO-S stably transfected cell strain, and H1975-HGF or MKN-45 tumor cell strain at 1×10⁶ cells/mL were blocked with 1% BSA PBS buffer, followed by the addition of diluted antibody samples at different concentrations (C25 was a negative control, which was an IgGI antibody protein of irrelevant targets, the same applied hereinafter), and the mixtures were incubated for 1 h. After the mixtures were washed twice, R-PE-goat anti-human (H+L) antibody (Invitrogen, CAT #H10104) was added, and the mixtures were incubated for 0.5 h. After the plate was washed twice, fluorescence signals were read using a flow cytometer.

[3] = molecular target: T1, HGFR protein extracellular domain with …; experiment: SPR Biacore T200
Procedure: as §1, §2

[4] = molecular target: T2, human EGFR protein extracellular domain with the His tag (human, UniProt P00533 25-645); experiment: flow cytometry on EGFR CHO-S stably transfected cells, R-PE goat anti-human (H+L) detection
T2 construct: also called EGFR-His
From the text: as §3

[5] = molecular target: T2, human EGFR protein extracellular domain …; experiment: SPR Biacore T200, antibody captured on Protein A, antigen in flow, 1:1 fit
Procedure: as §1, §2

[6] = molecular target: T1, HGFR protein extracellular domain with …; experiment: competition ELISA, blocks bio-HGF-His on coated HGFR-His
Procedure: The ability of the antibodies to block HGF/HGFR was tested by ELISA. 5 μg/mL HGFR-His (for the sequence, see SEQ ID NO: 43) was coated overnight at 4° C. and then blocked. […] After the plate was washed, horseradish peroxidase-streptavidin (Jackson, 016-030-084) was added, and the plate was incubated for 1 h. After the plate was washed, a tetramethylbenzidine solution was added for color development. Finally, a stop solution was added. OD450 values were measured on a microplate reader.

[7] = molecular target: T2, human EGFR protein extracellular domain …; experiment: competition ELISA, blocks EGF-mFc on captured EGFR-His
Procedure: 1 μg/mL rabbit anti-His antibody (GenScript, A01857) was coated overnight at 4° C. and then blocked. After the plate was washed, 2 μg/mL EGFR-His (SEQ ID NO: 42) was added, and the plate was incubated for 1 h. […] After the plate was washed, a tetramethylbenzidine solution was added for color development. Finally, a stop solution was added. OD450 values were measured on a microplate reader.

B1: Ab10.1 (antibody, V domains shown)
VH: QVQLVESGGGVVQPGRSLRLSCAASGFSLSDYGVHWVRQAPGKGLEWLAVIWSGGSTNYADAFVSRLTISKDNSKNTVYLQMNSLRAEDTAVYYCARNHDNPYIYAMDYWGQGTTVTVSS
VL: DIVLTQSPDSLAVSLGERATINCRADKSVSTSTYNYLHWYQQKPGQPPKLLIYRGSFLATGVPDRFSGSGSGTDFTLTISSLQAEDVAVYYCQHSRDLPPTFGQGTKLEIK
notes: CDR mutant of Ab10
[1]
  Kd: 7.56 nM
  koff: 0.000309 s⁻¹
  kon: 40800 M⁻¹ s⁻¹
[2]
  EC50 (read off the curve): ~0.5 nM
[3]
  fold affinity against Ab10: ≥ 4 fold

B2: Omab (antibody, V domains shown)
VH: EVQLVESGGGLVQPGGSLRLSCAASGYTFTSYWLHWVRQAPGKGLEWVGMIDPSNSDTRFNPNFKDRFTISADTSKNTAYLQMNSLRAEDTAVYYCATYRSYVTPLDYWGQGTLVTVSS
VL: DIQMTQSPSSLSASVGDRVTITCKSSQSLLYTSSQKNYLAWYQQKPGKAPKLLIYWASTRESGVPSRFSGSGSGTDFTLTISSLQPEDFATYYCQQYYAYPWTFGQGTKVEIK
notes: anti-HGFR antibody (WO2013003680A1); also called onartuzumab
[2]
  EC50 (read off the curve): ~0.4 nM

B3: EM1 (bispecific antibody, human IgG1, kappa)
heavy 1: not shown
light 1: DIQLTQSPSSLSASVGDRVTITCRASQDISSALVWYQQKPGKAPKLLIYDASSLESGVPSRFSGSESGTDFTLTISSLQPEDFATYYCQQFNSYPLTFGGGTKVEIKGGGGSGGGGDIVLTQSPDSLAVSLGERATINCRADKSVSTSTYNYLHWYQQKPGQPPKLLIYRGSFLATGVPDRFSGSGSGTDFTLTISSLQAEDVAVYYCQHSRDLPPTFGQGTKLEIKRTVAAPSVFIFPPSDEQLKSGTASVVCLLNNFYPREAKVQWKVDNALQSGNSQESVTEQDSKDSTYSLSSTLTLSKADYEKHKVYACEVTHQGLSSPVTKSFNRGEC
heavy 2: EVQLVESGGGLVQPGGSLRLSCAASGYTFTSYWLHWVRQAPGKGLEWVGMIDPSNSDTRFNPNFKDRFTISADTSKNTAYLQMNSLRAEDTAVYYCATYRSYVTPLDYWGQGTLVTVSSGGGGSGIPPKIECLPIDISIDEGKVLTVASAFTGEPTPEVTWSTGGRKIHSQEQGRFHIENTDDSTTLTIKDVQKQDGGLYTLTLRNEFGSDSATVNIHIRSIDKTHTCPPCPAPELLGGPSVFLFPPKPKDTLMISRTPEVTCVVVDVSHEDPEVKFNWYVDGVEVHNAKTKPREEQYNSTYRVVSVLTVLHQDWLNGKEYKCKVSNKALPAPIEKTISKAKGQPREPQVCTLPPSREEMTKNQVSLSCAVKGFYPSDIAVEWESNGQPENNYKTTPPVLDSDGSFFLVSKLTVDKSRWQQGNVFSCSVMHEALHNHYTQKSLSLSPGK
light 2: DIQMTQSPSSLSASVGDRVTITCKSSQSLLYTSSQKNYLAWYQQKPGKAPKLLIYWASTRESGVPSRFSGSGSGTDFTLTISSLQPEDFATYYCQQYYAYPWTFGQGTKVEIKGGGGSSGAPRFLTRPKASVVSVGKDATLSCQIVGNPFPQVSWEKDKQPVTAGVRFRLAQDGDLYRLKILDLQLSDSGQYVCRARNAHGEAFACLGLQVDAEA
notes: Format 1: Zal.1 Fv on Ab10.1 Fab (knob) plus Omab Titin/Obscurin-substituted Fab (hole); four chains
[4]
  EC50 (read off the curve): ~2 nM
[5]
  Kd: 7.29 nM
  koff: 0.00103 s⁻¹
  kon: 142000 M⁻¹ s⁻¹
[1]
  Kd: 2.26 nM
  koff: 0.000124 s⁻¹
  kon: 54800 M⁻¹ s⁻¹
[6]
  IC50: 0.25 µg/mL
[7]
  IC50: 2.37 µg/mL

B4: EM2 (bispecific antibody, human IgG1, kappa)
heavy 1: not shown
light 1: DIQMTQSPSSLSASVGDRVTITCKSSQSLLYTSSQKNYLAWYQQKPGKAPKLLIYWASTRESGVPSRFSGSGSGTDFTLTISSLQPEDFATYYCQQYYAYPWTFGQGTKVEIKRTVAAPSVFIFPPSDEQLKSGTASVVCLLNNFYPREAKVQWKVDNALQSGNSQESVTEQDSKDSTYSLSSTLTLSKADYEKHKVYACEVTHQGLSSPVTKSFNRGEC
heavy 2: QVQLVESGGGVVQPGRSLRLSCAASGFTFSTYGMHWVRQAPGKGLEWVAVIWDDGSYKYYGDSVKGRFTISRDNSKNTLYLQMNSLRAEDTAVYYCARDGITMVRGVMKDYFDYWGQGTLVTVSSGGGGSGIPPKIECLPIDISIDEGKVLTVASAFTGEPTPEVTWSTGGRKIHSQEQGRFHIENTDDSTTLTIKDVQKQDGGLYTLTLRNEFGSDSATVNIHIRSIDKTHTCPPCPAPELLGGPSVFLFPPKPKDTLMISRTPEVTCVVVDVSHEDPEVKFNWYVDGVEVHNAKTKPREEQYNSTYRVVSVLTVLHQDWLNGKEYKCKVSNKALPAPIEKTISKAKGQPREPQVCTLPPSREEMTKNQVSLSCAVKGFYPSDIAVEWESNGQPENNYKTTPPVLDSDGSFFLVSKLTVDKSRWQQGNVFSCSVMHEALHNHYTQKSLSLSPGK
light 2: DIQLTQSPSSLSASVGDRVTITCRASQDISSALVWYQQKPGKAPKLLIYDASSLESGVPSRFSGSESGTDFTLTISSLQPEDFATYYCQQFNSYPLTFGGGTKVEIKGGGGSSGAPRFLTRPKASVVSVGKDATLSCQIVGNPFPQVSWEKDKQPVTAGVRFRLAQDGDLYRLKILDLQLSDSGQYVCRARNAHGEAFACLGLQVDAEA
notes: Format 2: Omab Fab (knob) plus Zal.1 Titin/Obscurin-substituted Fab (hole); four chains
[1]
  Kd: 3.04 nM
